T1: CD81 large extracellular loop (CD81-LEL) (UniProt P60033 113-201)
T1 construct: domain: large extracellular loop (LEL); also called CD81 receptor
T1 sequence (looked up): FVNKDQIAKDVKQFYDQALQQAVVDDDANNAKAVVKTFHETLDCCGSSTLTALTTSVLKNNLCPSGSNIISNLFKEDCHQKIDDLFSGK

B1: HC84.24 (antibody, V domains shown)
VH: QVQLVQSGAEVKKPGSSVKVSCKASGGTFSLNSLSWVRQAPGQGLEWMGTIIPIVGIANYAQKFQGRVTITADKSTGTAYMDLSSLSDDTAVYFCARELYSGTGFFRLEALDYWGQGTLVTVSS
VL: DIQMTQSPATLSLSPGERATLSCRASQSVSSYLAWYQQKPGQAPRLLIYDASNRATGIPARFIAGGSGTDFTLTISSLEPEDFAVYYCQQYGSPQTFGQGTKLEIKR
B2: secreted E1E2 with c-Fos/c-Jun leucine zipper scaffold (sE1E2.LZ) (other)
chain 1: YQVRNSSGLYHVTNDCPNSSIVYEAADAILHTPGCVPCVREGNASRCWVAVTPTVATRDGKLPTTQLRRHIDLLVGSATLCSALYVGDLCGSVFLVGQLFTFSPRRHWTTQDCNCSIYPGHITGHRMAWDMMMNWSPTAALVVAQLLRIPQAIMDMIAPGGRIARLEEKVKTLKAQNSELASTANMLREQVAQLKQKVMNYRRRRRR
chain 2: ETHVTGGSAGRTTAGLVGLLTPGAKQNIQLINTNGSWHINSTALNCNESLNTGWLAGLFYQHKFNSSGCPERLASCRRLTDFAQGWGPISYANGSGLDERPYCWHYPPRPCGIVPAKSVCGPVYCFTPSPVVVGTTDRSGAPTYSWGANDTDVFVLNNTRPPLGNWFGCTWMNSTGFTKVCGAPPCVIGGVGNNTLLCPTDCFRKHPEATYSRCGSGPWITPRCMVDYPYRLWHYPCTINYTIFKVRMYVGGVEHRLEAACNWTRGERCDLEDRDRSELSPLLLSTTQWQVLPCSFTTLPALSTGLIHLHQNIVDVQYLYGVGSSIASWAIPGGLTDTLQAETDQLEDKKSALQTEIANLLKEKEKLEFILAAYHHHHHH
notes: It is written here as the two chains expected after furin cleavage

Experiment [1] addresses T2, membrane-bound E1E2 (mbE1E2) (Hepatitis C virus, isolate H77C …, UniProt P27958 192-746).
T2 construct: Extracted from Expi293 membranes with detergent and purified; a heterogeneous mix of oligomers
Description: dose-dependent ELISA, antigen captured by GNA lectin.

Experiment [2] deals with B2. The experiment is described as above.
In experiment [3] the target is T3, c-Fos peptide (human).
T3 construct: Synthetic biotinylated peptide
As to the kind of experiment: circular dichroism spectroscopy of mixed peptides. (In general: Circular dichroism is widely used to follow secondary structure.)

The target in experiment [4] is T1, CD81 large extracellular loop (CD81-LEL). As to the kind of experiment: SPR (Biacore T200), antigen amine-coupled on CM5 chip, CD81-LEL injected, single cycle kinetics, 1:1 model. A general note: Surface plasmon resonance follows binding to a sensor surface in real time, without labels.
Experiment [5] shares this target. Description: SPR (Biacore T200); sE1E2.LZ amine-coupled to a CM5 chip, CD81-LEL injected; 1:1 model.

Results on three molecules are retold here after US20240016923A1 (UNIVERSITY OF MARYLAND COLLEGE PARK, published 2024).

Ends that are not written are not given here.

As usually defined, the Kd is the equilibrium constant for the complex coming apart. Read a low Kd as higher affinity. With B1, the values for the Kd in experiment [1] and in experiment [2] were 0.5 nM and 1.3 nM, respectively.
RIARLEEKVKTLKAQNSELASTANMLREQVAQLKQKVMNY (also: biotinylated, position not given here, Synthetic biotinylated peptide) [c-Jun peptide]: in experiment [3], the binding result is “binds”.
Usually koff stands for the first-order rate constant of dissociation. Low readings indicate slow dissociation, high ones fast dissociation. Broadly, the kon is the second-order rate constant of association. Read a low kon as slow association. B2 gave a Kd in experiment [4] of 10.8 nM. In experiment [5], this molecule showed a koff of 0.00067 s⁻¹ and an association rate constant (kon) of 63000 M⁻¹ s⁻¹.
